In publication PMC13364712 one finds Kd data, which are given here for 1 molecule.

The target of the test is actin filaments (actin from Gallus gallus skeletal muscle) (Gallus gallus (chicken)), P68139. In words: co-sedimentation; 4 µM EGFP–SFM peptide with 0–200 µM actin filaments in F buffer, 1 h at room temperature, 100,000g for 30 min; pellet read by anti-EGFP western blot; one-site specific binding fit; apparent. (In general: In western blotting, separated proteins are transferred to a membrane and probed.)

For RRSVGELRLLFEARCAAVAAAA (modifications not checked) [EGFP-tagged ITPKA SFM peptide, P23677 1-461], the Kd was 2000 nM.
